The results in this text go back to the supplement of paper PMC6755084.

Sequences and labels used below:
B1: F1*; the commonest letter at each place (parent)
chain: GAGACCGCAACTGAAAAGTTGTTATCACTTGTCGTAAGACACTTTGGATGGGTTGAAGTTCTGCACGTAGAAGCAAAAGGC

The variants in the series derive from B1. Description: fraction ligated after 30 min (ligated reads / total reads); higher = more ligase activity. Conditions: with F1*sub RNA substrate (template-directed ligation), 42 °C. The method in brief: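 Templates from an oligo pool were PCR-amplified, transcribed with T7 and gel-purified to give the ribozyme variants. Ligated and unligated products were separated on gel, reverse transcribed using barcoded primers, and read on a MiSeq. A quality filter of ≥20 was applied to core bases. Fraction ligated was taken as ligated reads as a share of all reads per variant.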
G46C T49G: the fraction ligated was 0.407.
On to G46C T49C, for which the fraction ligated worked out at 0.0853.
To G46C T49A belongs 0.344; to G47A G55A, 0.775.
To G47A G55T belongs 0.221; to G47A G55C, 0.422.
Under T49A A57G stands 0.792; under T49A A57C, 0.629; under T49A A57T, 0.724.
For G46T T49A, the fraction ligated worked out at 0.192.
To G46T T49G belongs 0.277; to G46T T49C, 0.148; to G50T A56G, 0.0624.
To G50T A56C belongs 0.0586; to G50T A56T, 0.0827; to A48T G55C, 0.0233.
For A48T G55A, the fraction ligated is 0.515.
Under A48T G55T stands 0.17.
Under G47C A48C stands 0.168; under G47C A48T, 0.257.
Under G47C A48G stands 0.122; under T45A T49G, 0.0993; under T45A T49A, 0.0341.
As for T45A T49C, the fraction ligated is 0.0557.
Take T45C T49G: the fraction ligated is 0.0625.
For T45C T49C, the fraction ligated stood at 0.0485.
T45C T49A: the fraction ligated was found to be 0.0409.
Under G50T A57G stands 0.526; under G50T A57T, 0.324; under G50T A57C, 0.172.
Under A48G A56T stands 0.357.
Regarding A48G A56G, the fraction ligated amounted to 0.399.
Under A48G A56C stands 0.259; under G55C A56C, 0.218.
In the case of G55C A56C A57C, the fraction ligated amounted to 0.0245.
For T45G A57G, the fraction ligated was 0.769.
To T45G A57C belongs 0.791.
To T45G A57T belongs 0.8; to T49C G55C, 0.0675.
Under T49C G55T stands 0.091; under T49C G55A, 0.335; under G46A A48T, 0.0714.
On to G46A A48C, for which the fraction ligated worked out at 0.675.
To G46A A48G belongs 0.609.
As to A48C A56G, the fraction ligated is 0.283.
To A48C A56T belongs 0.289; to A48C A56C, 0.185.
Under G47C G55C stands 0.0788; under G47C G55T, 0.0996; under G47C G55A, 0.11.
To T49G A56C belongs 0.109.
Turning to T49G A56T, the fraction ligated was 0.191.
Under T49G A56G stands 0.0888; under G47T G50A, 0.0507.
Regarding G47T G50T, the fraction ligated stood at 0.108.
Regarding G47T G50C, the fraction ligated is 0.048.
Consider T45C G47T, for which the fraction ligated is 0.379.
Consider T45C G47A, for which the fraction ligated came out at 0.366.
To T45C G47C belongs 0.31; to T45C G50T, 0.0706; to T45C G50C, 0.0165.
To T45C G50A belongs 0.0234; to G50C A57G, 0.104; to G50C A57C, 0.033.
Consider G50C A57T, for which the fraction ligated amounted to 0.0648.
To G47T A48C belongs 0.0847.
To G47T A48G belongs 0.183; to G47T A48T, 0.283; to G55A A56G A57G, 0.338.
Consider G55A A56G A57C, for which the fraction ligated is 0.131.
To G55A A56G A57T belongs 0.152; to T45C A57T, 0.777.
Under T45C A57G stands 0.812; under T45C A57C, 0.785; under T45C, 0.74.
To T45G belongs 0.385; to A48T T49C, 0.139; to A48T T49G, 0.348.
As for A48T T49A, the fraction ligated was found to be 0.565.
To G47T A56G belongs 0.0352; to G47T A56T, 0.0333; to G47T A56C, 0.0301.
To G47T G55T belongs 0.0451.
